Laboratory results: IntAct's records for PubMed 18826941

B1: N-acetyllactosaminide beta-1,3-N-acetylglucosaminyltransferase 2 (Homo sapiens), Q9NY97 (parent)
chain: MSVGRRRIKLLGILMMANVFIYFIMEVSKSSSQEKNGKGEVIIPKEKFWKISTPPEAYWNREQEKLNRQYNPILSMLTNQTGEAGRLSNISHLNYCEPDLRVTSVVTGFNNLPDRFKDFLLYLRCRNYSLLIDQPDKCAKKPFLLLAIKSLTPHFARRQAIRESWGQESNAGNQTVVRVFLLGQTPPEDNHPDLSDMLKFESEKHQDILMWNYRDTFFNLSLKEVLFLRWVSTSCPDTEFVFKGDDDVFVNTHHILNYLNSLSKTKAKDLFIGDVIHNAGPHRDKKLKYYIPEVVYSGLYPPYAGGGGFLYSGHLALRLYHITDQVHLYPIDDVYTGMCLQKLGLVPEKHKGFRTFDIEEKNKNNICSYVDLMLVHSRKPQEMIDIWSQLQSAHLKC
partner: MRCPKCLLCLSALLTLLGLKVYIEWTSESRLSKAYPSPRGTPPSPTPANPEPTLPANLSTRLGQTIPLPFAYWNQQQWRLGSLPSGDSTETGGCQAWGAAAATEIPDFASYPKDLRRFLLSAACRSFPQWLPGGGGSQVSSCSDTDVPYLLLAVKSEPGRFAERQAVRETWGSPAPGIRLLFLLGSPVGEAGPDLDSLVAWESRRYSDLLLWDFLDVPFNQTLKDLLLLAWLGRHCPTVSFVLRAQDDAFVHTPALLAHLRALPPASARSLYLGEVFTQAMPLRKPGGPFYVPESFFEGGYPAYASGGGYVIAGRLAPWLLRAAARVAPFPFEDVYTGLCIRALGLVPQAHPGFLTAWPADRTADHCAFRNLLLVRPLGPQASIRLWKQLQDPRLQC
B2: "UDP-GlcNAc:betaGal beta-1,3-N-acetylglucosaminyltransferase 8" (Homo sapiens), Q7Z7M8 (parent)
chain: B1 partner
partner: B1 chain

Variants of: B1
Conditions: with B3GNT8, Q7Z7M8

effect of a mutation on the interaction	Variant
with no effect	D245A

Variants of: B2
Conditions: with B3GNT2, Q9NY97

effect of a mutation on the interaction	Variant
with no effect	Q246A
